Reference: patent US20220259593A1, “CONTROL OF MAMMALIAN GENE DOSAGE USING CRISPR” (The Regents of the University of California, priority 2019, published 2022)

Tested on: K562 CRISPRi cells
Experiment: Constant region variant library pooled growth screen, K562
Assay type: cell-based, human
Conditions: sgRNA constant region variants; activity relative to the original, un-modified constant region cr995
In short: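 Cells were selected with puromycin for 2 days and then kept in RPMI-1640 spinner cultures, with duplicates handled separately. Targeting sequences comprised 3 sgRNAs per essential gene for 10 genes plus six non-targeting controls. Activities were normalized against pairing with the unmodified scaffold.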

B1: cr714 (nucleic acid)
guide: GTTTAAGAGCTAAGCTGGAAACAGCATAGCAAGCTTAAATAAGGCTAGTCCGTTATCAAATTGAAAAATTGGCACCGAGTCGGTGCT
modifications: listed as DNA, chemistry not fully specified
With B1 the Mean relative activity was 0.09294.

B2: cr325 (nucleic acid)
guide: GTTTAAGAGCTAAGCTGGAAACAGCATAGCAACTTTAAATAAGGCTAGTCCGTTATCAGCTTGAAAAAGCGGCACCGAGTCGGTGCT
modifications: listed as DNA, chemistry not fully specified
For B2, the Mean relative activity was 0.09143.

B3: cr066 (nucleic acid)
guide: ATTCAAGAGCTAAGCTGGAAACAGCATAGCAAGTTTAAATAAGGCTAGTCCGTTATCAACTTGAAAAAGTGGCACCGAGTCGGTGCT
modifications: listed as DNA, chemistry not fully specified
With B3 the Mean relative activity was 0.09115.

B4: cr762 (nucleic acid)
guide: GTTTAAGAGCTAAGCTGGAAACAGCATAGCACGTTTAAATAAGGCTAGTCCTTTATCAACTTGAAAAAGTGGCACCGAGTCGGTGCT
modifications: listed as DNA, chemistry not fully specified
Work on B4 yielded a Mean relative activity of 0.0885.

B5: cr739 (nucleic acid)
guide: GTTTAAGAGCTAAGCTGGAAACAGCATAGCAACTTTAAATAAGGCTAGTCCGTTATCAACGTGAAAACGTGGCACCGAGTCGGTGCT
modifications: listed as DNA, chemistry not fully specified
B5 gave a Mean relative activity of 0.08764.

B6: cr791 (nucleic acid)
guide: GTTTAAGAGCTAAGCTGGAAACAGCATAGCAAGTTTAAATAAAGCTAGTCTGTTATCAACTTGAAAAAGTGGCACCCAGTGGGTGCT
modifications: listed as DNA, chemistry not fully specified
Work on B6 yielded a Mean relative activity of 0.07648.

B7: cr483 (nucleic acid)
guide: GTTTAAGAGCTAAGCTGGAAACAGCATAGCAAGTTTAAATAAGGCTAGTCCGTTATCAACTAGAAATAGTGGCGTCGAGTCGACGCT
modifications: listed as DNA, chemistry not fully specified
In the case of B7, the Mean relative activity is reported as 1.037.

B8: cr985 (nucleic acid)
guide: GTTTAAGAGCTAAGCTGGAAACAGCATAGCAAGTTTAAATAAGGCTAGTCCTTTATCAACTTGAAAAAGTGGCACCGAGTCGGTGCT
modifications: listed as DNA, chemistry not fully specified
For B8, the Mean relative activity was 0.07562.

B9: cr588 (nucleic acid)
guide: GTTTAAGAGCTAAGCTGGAAACAGCATAGCAACTTTAAATAAGGCTAGTCCGTTATCAACTTGAAAAAGTGGTACCGAGTCGGTACT
modifications: listed as DNA, chemistry not fully specified
B9 showed a Mean relative activity of 0.07507.

B10: cr082 (nucleic acid)
guide: CGTTAAGAGCTAAGCTGGAAACAGCATAGCAAGTTTAAATAAGGCTAGTCCGTTATCAACTTGAAAAAGTGGCACCGAGTCGGTGCT
modifications: listed as DNA, chemistry not fully specified
In the case of B10, the Mean relative activity is reported as 0.0741.

B11: cr038 (nucleic acid)
guide: GTTTGCGAGCTAAGCTGGAAACAGCATAGCAAGTTTAAATAAGGCTAGTCCGTTATCAACTTGAAAAAGTGGCACCGAGTCGGTGCT
modifications: listed as DNA, chemistry not fully specified
B11 gave a Mean relative activity of 0.07321.

B12: cr582 (nucleic acid)
guide: GTTTAAGAGCTAAGCTGGAAACAGCATAGCAAGTTTAAATACGGCTTGTCCGTTATCAACTTCAAAAAGTGGCACCGAGTCGGTGCT
modifications: listed as DNA, chemistry not fully specified
For B12, the Mean relative activity was 0.07315.

B13: cr438 (nucleic acid)
guide: GTTTAAGAGCTAAGCTGGAAACAGCATAGCCAGTTTAAATACGGCTAGTCCGTTGTCAACTTGAAAAAGTGGCACCGAGTCGGTGCT
modifications: listed as DNA, chemistry not fully specified
B13 gave a Mean relative activity of 0.06886.

B14: cr097 (nucleic acid)
guide: GCTTACGAGCTAAGCTGGAAACAGCATAGCAAGTTTAAATAAGGCTAGTCCGTTATCAACTTGAAAAAGTGGCACCGAGTCGGTGCT
modifications: listed as DNA, chemistry not fully specified
In the case of B14, the Mean relative activity is reported as 0.06585.

B15: cr467 (nucleic acid)
guide: GTTTAAGAGCTAAGCTGGAAACAGCATAGCAAGCTTAAATAAGGCTAGTCCGTTATCAATTTGAAAAAATGGCACCGAGTCGGTGCT
modifications: listed as DNA, chemistry not fully specified
B15 was tested, and the Mean relative activity was 0.06565.

B16: cr197 (nucleic acid)
guide: GTTTAAGAGCTAAGCTGGAAACAGCATAGCAAGTTTAAATAATGCTAGTCAGTTATCAACTGGAAACAGTGGCACCGAGTCGGTGCT
modifications: listed as DNA, chemistry not fully specified
For B16, the Mean relative activity was 0.06436.

B17: cr741 (nucleic acid)
guide: GTTTAAGAGCTAAGCTGGAAACAGCATGGCAAGTTTAAATACGGCTAGACCGTTATCAACTTGAAAAAGTGGCACCGAGTCGGTGCT
modifications: listed as DNA, chemistry not fully specified
With B17 the Mean relative activity was 0.06347.

B18: cr298 (nucleic acid)
guide: GTTTAAGAGCTAAGCTGGAAACAGCATAGCAAGTTTAAATAAGGCTAGTCCTTTATCAACTTGAAAAAGTGGCACCGACTCGGTGCT
modifications: listed as DNA, chemistry not fully specified
For B18, the Mean relative activity was 0.06335.

B19: cr193 (nucleic acid)
guide: GTTTAAGAGCTAAGCTGGAAACAGCATAGCAAGTTTAAATAAAGCTAGTCTGTTATCAATTTGAAAAAATGCCACCGAGTCGGTGGT
modifications: listed as DNA, chemistry not fully specified
B19 showed a Mean relative activity of 0.06081.

B20: cr514 (nucleic acid)
guide: GTTTAAGAGCTAAGCTGGAAACAGCATAGCAACTTTAAATAAGGCTAGTCCGTTATCAACTTGAAAAAGTGGGACCGAGTCGGTCCT
modifications: listed as DNA, chemistry not fully specified
B20 gave a Mean relative activity of 0.05776.

B21: cr061 (nucleic acid)
guide: GTTCAACAGCTAAGCTGGAAACAGCATAGCAAGTTTAAATAAGGCTAGTCCGTTATCAACTTGAAAAAGTGGCACCGAGTCGGTGCT
modifications: listed as DNA, chemistry not fully specified
For B21, the Mean relative activity was 0.05691.

B22: cr419 (nucleic acid)
guide: GTTTAAGAGCTAAGCTGGAAACAGCATAGCAACTTTAAATAAGGCTAGTCCGTTATCAACTTGAAAAAGTGGAACCGAGTCGGTTCT
modifications: listed as DNA, chemistry not fully specified
In the case of B22, the Mean relative activity is reported as 0.05682.

B23: cr928 (nucleic acid)
guide: GTTTAAGAGCTAAGCTGGAAACAGCATAGCTAGTTTAAATGAGGCTAGTCCGTAATCAACTTGAAAAAGTGGCACCGAGTCGGTGCT
modifications: listed as DNA, chemistry not fully specified
With B23 the Mean relative activity was 0.05583.

B24: cr115 (nucleic acid)
guide: GTTTAAGAGCTAAGCTGGAAACAGCATAGCAAGTTTAAATAATGCTAGTCAGTTATCAACTCGAAAGAGTGGCACCGAGTCGGTGCT
modifications: listed as DNA, chemistry not fully specified
For B24, the Mean relative activity was 0.05506.

B25: cr422 (nucleic acid)
guide: GTTTAAGAGCTAAGCTGGAAACAGCATAGCAAGTTTAAATAAGGCTAGTCCGTTATCAACTTGAAAAAGTGGTACCGAGTCGTTCCT
modifications: listed as DNA, chemistry not fully specified
With B25 the Mean relative activity was 0.0493.

B26: cr776 (nucleic acid)
guide: GTTTAAGAGCTAAGCTGGAAACAGCATAGCAAGTTTAAATAAGGCTAGTCCGTTATCATCTAGAAATAGAGGCACCGAGTCGGTGCT
modifications: listed as DNA, chemistry not fully specified
With B26 the Mean relative activity was 1.037.

B27: cr465 (nucleic acid)
guide: GTTTAAGAGCTAAGCTGGAAACAGCATAGCAAGCTTAAATAAGGATATTCCGTTATCAACTTGAAAAAGTGGCACCGAGTCGGTGCT
modifications: listed as DNA, chemistry not fully specified
B27 gave a Mean relative activity of 0.04864.

B28: cr764 (nucleic acid)
guide: GTTTAAGAGCTAAGCTGGAAACAGCATAGCAACTTTAAATAAGGCTAGTCCGTTATCAACTTGAAAAAGTGGCACCGAGTCGGTGCT
modifications: listed as DNA, chemistry not fully specified
Molecule B28 has a Mean relative activity of 0.04863.

B29: cr045 (nucleic acid)
guide: TTTTATGAGCTAAGCTGGAAACAGCATAGCAAGTTTAAATAAGGCTAGTCCGTTATCAACTTGAAAAAGTGGCACCGAGTCGGTGCT
modifications: listed as DNA, chemistry not fully specified
B29 showed a Mean relative activity of 0.04839.

B30: cr050 (nucleic acid)
guide: CTTTAGGAGCTAAGCTGGAAACAGCATAGCAAGTTTAAATAAGGCTAGTCCGTTATCAACTTGAAAAAGTGGCACCGAGTCGGTGCT
modifications: listed as DNA, chemistry not fully specified
Work on B30 yielded a Mean relative activity of 0.04785.

B31: cr677 (nucleic acid)
guide: GTTTAAGAGCTAAGCTGGAAACAGCATAGCAAGTTTAAATTAGGCTAGTCCGTTATCAACTTGAAAAAGTGGCACCGAGTCGGTGCT
modifications: listed as DNA, chemistry not fully specified
B31 gave a Mean relative activity of 0.04623.
